Measured values as given in article PMC3887095.

Tests used:
[1] = target: RKLM+T107I HIV-1 CA-NC tubular complexes (HIV-1); test: co-sedimentation; 5 µl of assembled CA-NC complexes mixed with 125 µg of HeLa cell lysate, NaCl adjusted to 150 mM, 1 h at room temperature; pelleted through a 60% sucrose cushion at 100,000 x g for 1 h at 4°C; CPSF6 in the pellet measured by LI-COR and normalized by CA-NC
[2] = target: RKLM+S41A HIV-1 CA-NC tubular complexes (HIV-1); test: as above
[3] = target: T54A+A105T HIV-1 CA tubes (HIV-1); test: co-sedimentation; assembled CA tubes (5 µM) incubated 1 h with HeLa cell extracts (500, 250 or 125 µg) in 100 µl of 50 mM Tris pH 8, 150 mM NaCl, 5 mM MgCl2, 0.5 mM EDTA; pelleted 5 min at 5,000 x g and washed; non-reducing SDS-PAGE and quantitative immunoblotting for CPSF6 and CA; in one experiment with or without 5 µM CsA
[4] = target: RKLM+T107I HIV-1 CA tubes (HIV-1); test: as above

“endogenous CPSF6 (from UniProt Q16630 1-551) (natural protein)” gave a reduced binding to CPSF6, percent [1] of 50%, a percent weaker binding than RKLM [2] of 7% and a quantity of CPSF6 brought down relative to T54A CA tubes (fold of T54A CA tubes) [3] of 0.33. It also gave a reduced binding to CPSF6, percent [4] of 50%.
